In PMC9898259, “Cryo-EM structure supports a role of AQP7 as a junction protein” (Nature Communications, 2023):

Biological target: the molecule itself
Assay: cryo-EM structure; single-particle cryo-EM; 1 mg/mL AQP7 in GDN on Quantifoil Cu R1.2/1.3 holey carbon grids, 4 °C; octamer = dimer of tetramers; D4 (2.55 Å) and C1 (3.0 Å) reconstructions

B1: Human aquaglyceroporin 7 (AQP7), full-length, C-terminal poly-histidine tag (natural protein, UniProt O14520 1-342, looked up)
chain: MVQASGHRRSTRGSKMVSWSVIAKIQEILQRKMVREFLAEFMSTYVMMVFGLGSVAHMVLNKKYGSYLGVNLGFGFGVTMGVHVAGRISGAHMNAAVTFANCALGRVPWRKFPVYVLGQFLGSFLAAATIYSLFYTAILHFSGGQLMVTGPVATAGIFATYLPDHMTLWRGFLNEAWLTGMLQLCLFAITDQENNPALPGTEALVIGILVVIIGVSLGMNTGYAINPSRDLPPRIFTFIAGWGKQVFSNGENWWWVPVVAPLLGAYLGGIIYLVFIGSTIPREPLKLEDSVAYEDHGITVLPKMGSHEPTISPLTPVSVSPANRSSVHPAPPLHESMALEHF
notes: Aquaporin-7 (aquaglyceroporin 7), human, full-length gene; residues 25-277 modelled in the 2.55 Å map; Tetramers that pair into an octamer (dimer of tetramers) in the cryo-EM structure; only ~47% of all particles were in the octamer class; also called human AQP7; source: P. pastoris GS115 aqy1Δ::HIS4 agp1Δ::NatMX, purified (Ni-NTA, size-exclusion chromatography) in GDN
Q: For B1, which “stoichiometry N” value is on record?
A: The value was 8.
